The values below come from patent publication US20260098059A1 (ENDOMET BIOSCIENCES, published 2026).

Assay [1] deals with T1, β-catenin (UniProt P35222 134-665, limits assumed, biotinylated in the SPR and plate assays).
T1 construct: also called beta catenin; biotinylated β-catenin
T1 sequence (looked up): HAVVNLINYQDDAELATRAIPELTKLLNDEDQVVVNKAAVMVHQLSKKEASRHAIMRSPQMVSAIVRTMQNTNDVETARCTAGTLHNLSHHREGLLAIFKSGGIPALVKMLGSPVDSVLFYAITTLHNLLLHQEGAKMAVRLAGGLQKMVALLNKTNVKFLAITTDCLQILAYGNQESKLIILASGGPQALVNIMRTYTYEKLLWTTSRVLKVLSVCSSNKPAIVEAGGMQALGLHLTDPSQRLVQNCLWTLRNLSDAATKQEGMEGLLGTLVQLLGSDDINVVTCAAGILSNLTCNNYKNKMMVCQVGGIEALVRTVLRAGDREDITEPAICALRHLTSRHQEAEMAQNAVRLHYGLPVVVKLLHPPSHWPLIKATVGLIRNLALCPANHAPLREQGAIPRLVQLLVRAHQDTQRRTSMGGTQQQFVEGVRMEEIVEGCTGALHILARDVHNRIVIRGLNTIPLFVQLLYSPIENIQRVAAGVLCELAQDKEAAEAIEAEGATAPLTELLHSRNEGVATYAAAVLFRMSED
Put plainly: competitive FP. In a few lines: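 Competitive fluorescence polarization with inhibitor peptide serially diluted from 10 nM to 30 uM; polarization read at 470 nm excitation, 520 nm emission. Experiments performed three times.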

Assay [2] deals with T1, β-catenin. Put plainly: cell-based or functional assay.

“And” between values parts separate entries of the source, which are not always exact repeats. Equal values may be shown once. Bridges are numbered along the chain shown (N, C = ends). Where no end group is shown, it is not given here. [ ]: non-standard residue; d: D form. The star is where a group is joined. NMeW = CN[C@@H](Cc1c[nH]c2ccccc12)C(=O)O; αMeW = C[C@](N)(Cc1c[nH]c2ccccc12)C(=O)O; Stearoyl = CCCCCCCCCCCCCCCCCC(=O)*; αMeF = C[C@](N)(Cc1ccccc1)C(=O)O; Chg = N[C@H](C(=O)O)C1CCCCC1; αMeV = CC(C)[C@](C)(N)C(=O)O; αMeS = C[C@](N)(CO)C(=O)O; NMeA = CN[C@@H](C)C(=O)O

Ac-W[NMeA]QKILNDH[Chg]QAVW-NH2 (lactam 4-8) [SEQ ID NO: 458]: the Kd (usually the free concentration of one partner at which half of the binding sites on the other are occupied at equilibrium, for simple one-to-one binding) in assay [1] is > 400 nM and ≤ 1000 nM.

MMVQSLFVPPVK (not fully specified; cyclo-glutaryl-*MM-NMeNva-QSLF-NMeNva-PP-NMeNva-K*-CONH2) [SEQ ID NO: 3]: in assay [1], the Kd is > 10000 nM and ≤ 30000 nM.

As for H-MWFLISSW-OH [SEQ ID NO: 96], the “Wnt Reporter EC50” value in assay [2] is > 7500 nM and ≤ 15000 nM. In assay [1], the Kd was > 10000 nM and ≤ 30000 nM.

B1: SEQ ID NO: 197 (peptide)
peptide: MWFLICFW
HELM: PEPTIDE1{[ac].M.W.F.L.I.C.F.W.[O=C(O)CCCN[*:1]]}$$$$V2.0
SMILES: CC[C@H](C)[C@H](NC(=O)[C@H](CC(C)C)NC(=O)[C@H](Cc1ccccc1)NC(=O)[C@H](Cc1c[nH]c2ccccc12)NC(=O)[C@H](CCSC)NC(C)=O)C(=O)N[C@@H](CS)C(=O)N[C@@H](Cc1ccccc1)C(=O)N[C@@H](Cc1c[nH]c2ccccc12)C(=O)NCCCC(=O)O
For the molecule B1, the “Wnt Reporter EC50” value in assay [2] was at most 7500 nM. The dissociation constant (Kd) in assay [1] was > 400 nM and ≤ 1000 nM.

Take MWFLISFWG-NH2 [SEQ ID NO: 108]: the “Wnt Reporter EC50” value in assay [2] is > 7500 nM and ≤ 15000 nM. For the same molecule, the Kd in assay [1] was > 400 nM and ≤ 1000 nM.

On to Ac-W[NMeA]QKILDEH[Chg]EDVWK-NH2 (lactam 11-15, 4-8 (inferred)) [SEQ ID NO: 464], for which, in assay [1], the Kd is > 400 nM and ≤ 1000 nM.

B2: SEQ ID NO: 102 (peptide)
peptide: WFLISFW
HELM: PEPTIDE1{[meW].F.L.I.S.F.W.[am]}$$$$V2.0
SMILES: CC[C@H](C)[C@H](NC(=O)[C@H](CC(C)C)NC(=O)[C@H](Cc1ccccc1)NC(=O)[C@H](Cc1c[nH]c2ccccc12)NC)C(=O)N[C@@H](CO)C(=O)N[C@@H](Cc1ccccc1)C(=O)N[C@@H](Cc1c[nH]c2ccccc12)C(N)=O
Regarding B2, in assay [2], the “Wnt Reporter EC50” value was > 15000 nM and ≤ 22500 nM. In assay [1], this molecule showed a Kd of at most 400 nM.

In the case of Stearoyl-GW[NMeW]ESILDEHVQRVWG-OH [SEQ ID NO: 2], in assay [1], the equilibrium dissociation constant (Kd) was at most 400 nM.

For the molecule H-MWFLICFWG-OH [SEQ ID NO: 42], the “Wnt Reporter EC50” value in assay [2] is at most 7500 nM. For the same molecule, the equilibrium dissociation constant (Kd) in assay [1] was at most 400 nM.

H-MWILI[αMeS]FWG-OH [SEQ ID NO: 136]: in assay [2], the “Wnt Reporter EC50” value is above 30000 nM. In addition, the Kd in assay [1] is > 400 nM and ≤ 1000 nM.

In the case of H-HWILISFWG-OH [SEQ ID NO: 126], in assay [2], the “Wnt Reporter EC50” value was at most 7500 nM. In assay [1], the Kd was at most 400 nM.

In the case of H-MWILISFWG-OH [SEQ ID NO: 43], the “Wnt Reporter EC50” value in assay [2] is at most 7500 nM. Besides, the Kd in assay [1] was > 400 nM and ≤ 1000 nM.

In the case of H-KWILISFWG-OH [SEQ ID NO: 125], the “Wnt Reporter EC50” value in assay [2] was > 22500 nM and ≤ 30000 nM. For the same molecule, the Kd in assay [1] is > 400 nM and ≤ 1000 nM.

Consider H-MW[αMeF]LICFWG-OH [SEQ ID NO: 131], for which the “Wnt Reporter EC50” value in assay [2] is > 7500 nM and ≤ 15000 nM. This molecule also had a Kd in assay [1] of at most 400 nM.

Turning to H-MWILIC[αMeF]WG-OH [SEQ ID NO: 121], in assay [2], the “Wnt Reporter EC50” value was at most 7500 nM. In assay [1], this molecule displayed a Kd of at most 400 nM.

As to H-MWILISSWG-OH [SEQ ID NO: 129], the “Wnt Reporter EC50” value in assay [2] is at most 7500 nM. In assay [1], the Kd is > 400 nM and ≤ 1000 nM.

Consider H-M[αMeW]ILICFWG-OH [SEQ ID NO: 132], for which the “Wnt Reporter EC50” value in assay [2] was > 7500 nM and ≤ 15000 nM. In assay [1], this molecule registered a Kd of at most 400 nM.

Take H-WWILISFWG-OH [SEQ ID NO: 127]: the “Wnt Reporter EC50” value in assay [2] was > 7500 nM and ≤ 15000 nM. Further, the Kd in assay [1] was > 400 nM and ≤ 1000 nM.

As to H-MWILIS[αMeF]WG-OH [SEQ ID NO: 128], in assay [2], the “Wnt Reporter EC50” value was > 7500 nM and ≤ 15000 nM. The Kd in assay [1] is > 400 nM and ≤ 1000 nM.

H-MWILICFWG-OH [SEQ ID NO: 116]: the “Wnt Reporter EC50” value in assay [2] was at most 7500 nM. Moreover, in assay [1], the Kd was > 400 nM and ≤ 1000 nM.

B3: SEQ ID NO: 36 (peptide)
peptide: WWESILDEHVQRVWG
HELM: PEPTIDE1{W.[meW].E.S.I.L.D.E.H.V.Q.R.V.W.G.[am]}$$$$V2.0
SMILES: CC[C@H](C)[C@H](NC(=O)[C@H](CO)NC(=O)[C@H](CCC(=O)O)NC(=O)[C@H](Cc1c[nH]c2ccccc12)N(C)C(=O)[C@@H](N)Cc1c[nH]c2ccccc12)C(=O)N[C@@H](CC(C)C)C(=O)N[C@@H](CC(=O)O)C(=O)N[C@@H](CCC(=O)O)C(=O)N[C@@H](Cc1c[nH]cn1)C(=O)N[C@H](C(=O)N[C@@H](CCC(N)=O)C(=O)N[C@@H](CCCNC(=N)N)C(=O)N[C@H](C(=O)N[C@@H](Cc1c[nH]c2ccccc12)C(=O)NCC(N)=O)C(C)C)C(C)C
With B3, the “Wnt Reporter EC50” value in assay [2] is above 30000 nM. The molecule also showed a dissociation constant (Kd) in assay [1] of at most 400 nM.

In the case of H-MWE[αMeS]ILDEHVQRVWG-NH2 [SEQ ID NO: 35], the “Wnt Reporter EC50” value in assay [2] is above 30000 nM. The dissociation constant (Kd) in assay [1] was at most 400 nM.

With H-MWESILDEH[αMeV]QRVWG-NH2 [SEQ ID NO: 34], the “Wnt Reporter EC50” value in assay [2] is above 30000 nM. The Kd in assay [1] was at most 400 nM.

B4: SEQ ID NO: 455 (peptide)
peptide: WXQKILNDHGQRVW
HELM: PEPTIDE1{[ac].W.[Aib].Q.K.I.L.N.D.H.[O=C([C@@H](N[*:1])C1CCCCC1)[*:2]].Q.R.V.W.[am]}$PEPTIDE1,PEPTIDE1,5:R3-9:R3$$$V2.0
SMILES: CC[C@H](C)[C@@H]1NC(=O)[C@@H](NC(=O)[C@H](CCC(N)=O)NC(=O)C(C)(C)NC(=O)[C@H](Cc2c[nH]c3ccccc23)NC(C)=O)CCCCNC(=O)C[C@@H](C(=O)N[C@@H](Cc2c[nH]cn2)C(=O)N[C@H](C(=O)N[C@@H](CCC(N)=O)C(=O)N[C@@H](CCCNC(=N)N)C(=O)N[C@H](C(=O)N[C@@H](Cc2c[nH]c3ccccc23)C(N)=O)C(C)C)C2CCCCC2)NC(=O)[C@H](CC(N)=O)NC(=O)[C@H](CC(C)C)NC1=O
In turn, B4 gave a dissociation constant Kd in assay [1] of at most 400 nM.

B5: SEQ ID NO: 450 (peptide)
peptide: WAESILKEHVQRVWG
HELM: PEPTIDE1{[ac].W.[meA].E.S.I.L.K.E.H.V.Q.R.V.W.G.[am]}$PEPTIDE1,PEPTIDE1,4:R3-8:R3$$$V2.0
SMILES: CC[C@H](C)[C@@H]1NC(=O)[C@H](CO)NC(=O)[C@@H](NC(=O)[C@H](C)N(C)C(=O)[C@H](Cc2c[nH]c3ccccc23)NC(C)=O)CCC(=O)NCCCC[C@@H](C(=O)N[C@@H](CCC(=O)O)C(=O)N[C@@H](Cc2c[nH]cn2)C(=O)N[C@H](C(=O)N[C@@H](CCC(N)=O)C(=O)N[C@@H](CCCNC(=N)N)C(=O)N[C@H](C(=O)N[C@@H](Cc2c[nH]c3ccccc23)C(=O)NCC(N)=O)C(C)C)C(C)C)NC(=O)[C@H](CC(C)C)NC1=O
B5: the dissociation constant Kd in assay [1] was > 400 nM and ≤ 1000 nM.

Turning to H-KMWILISFWG-OH [SEQ ID NO: 122], the “Wnt Reporter EC50” value in assay [2] is > 22500 nM and ≤ 30000 nM. Also, in assay [1], the equilibrium dissociation constant (Kd) was at most 400 nM.

Turning to H-HMWILISFWG-OH [SEQ ID NO: 123], the “Wnt Reporter EC50” value in assay [2] is at most 7500 nM. Moreover, the Kd in assay [1] is at most 400 nM.

B6: SEQ ID NO: 186 (peptide)
peptide: KMWFLICFWE
HELM: PEPTIDE1{[ac].K.M.W.F.L.I.C.F.W.E}$PEPTIDE1,PEPTIDE1,2:R3-11:R3$$$V2.0
SMILES: CC[C@H](C)[C@@H]1NC(=O)[C@H](CC(C)C)NC(=O)[C@H](Cc2ccccc2)NC(=O)[C@H](Cc2c[nH]c3ccccc23)NC(=O)[C@H](CCSC)NC(=O)[C@@H](NC(C)=O)CCCCNC(=O)CC[C@@H](C(=O)O)NC(=O)[C@H](Cc2c[nH]c3ccccc23)NC(=O)[C@H](Cc2ccccc2)NC(=O)[C@H](CS)NC1=O
Turning to B6, the “Wnt Reporter EC50” value in assay [2] was above 30000 nM. Further, the Kd in assay [1] is > 400 nM and ≤ 1000 nM.

With H-MWFLISFW-OH [SEQ ID NO: 112], the “Wnt Reporter EC50” value in assay [2] was at most 7500 nM. Also, in assay [1], the dissociation constant (Kd) is > 400 nM and ≤ 1000 nM.

B7: SEQ ID NO: 111 (peptide)
peptide: WFLISFW
HELM: PEPTIDE1{[meW].F.L.I.S.F.W}$$$$V2.0
SMILES: CC[C@H](C)[C@H](NC(=O)[C@H](CC(C)C)NC(=O)[C@H](Cc1ccccc1)NC(=O)[C@H](Cc1c[nH]c2ccccc12)NC)C(=O)N[C@@H](CO)C(=O)N[C@@H](Cc1ccccc1)C(=O)N[C@@H](Cc1c[nH]c2ccccc12)C(=O)O
On to B7, for which the “Wnt Reporter EC50” value in assay [2] is > 7500 nM and ≤ 15000 nM. Also, in assay [1], the Kd is > 400 nM and ≤ 1000 nM.
